In paper PMC6274671 (International Journal of Molecular Sciences, 2018):

Target: T1, bovine serum albumin (Bos taurus, UniProt P02769)
T1 construct: also called BSA
Experiment: ELISA
Conditions: both partners purified

T1 sequence (P02769 25-607): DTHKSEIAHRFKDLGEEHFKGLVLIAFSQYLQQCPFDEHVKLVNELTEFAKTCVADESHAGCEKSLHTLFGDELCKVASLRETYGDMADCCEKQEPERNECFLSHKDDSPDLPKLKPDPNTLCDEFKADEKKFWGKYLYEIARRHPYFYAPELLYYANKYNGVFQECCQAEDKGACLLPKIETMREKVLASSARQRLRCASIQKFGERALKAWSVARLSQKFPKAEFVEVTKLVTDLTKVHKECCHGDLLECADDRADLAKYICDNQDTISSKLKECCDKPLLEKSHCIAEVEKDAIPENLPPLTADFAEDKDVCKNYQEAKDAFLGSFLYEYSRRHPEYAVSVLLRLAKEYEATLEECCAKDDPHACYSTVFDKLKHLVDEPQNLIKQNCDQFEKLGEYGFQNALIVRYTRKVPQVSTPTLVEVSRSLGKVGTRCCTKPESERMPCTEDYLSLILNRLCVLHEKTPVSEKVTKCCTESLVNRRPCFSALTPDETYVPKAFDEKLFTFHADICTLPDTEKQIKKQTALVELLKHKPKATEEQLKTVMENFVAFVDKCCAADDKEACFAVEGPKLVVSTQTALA

B1: fluorescein-specific VHH-D4 (VHH)
VHH: QVQLVESGGALVQPGGSLRLSCAASGFTFGSFSMSWYRQATGKEREWVAGLSAGSSSTYYADSVKGRFTISRDNARNTVYLQMNSLKPEDTAVYYCARRTNTSSGSAGSFSTCIDDWGQGTQVTVSS
notes: also called clone D4
Does B1 bind?
Result: no binding
